In patent US20260078157A1:

Tests used:
[1] = target: human KLB and FGFR1c overexpressed on HEK293 cells (human) (UniProt Q86Z14); assay: cell-based or functional assay
surface of live cells = assay: association and dissociation on the surface of live cells; method not stated

UniProt Q86Z14, sequence (Q86Z14 whole entry, chain 1 of 2): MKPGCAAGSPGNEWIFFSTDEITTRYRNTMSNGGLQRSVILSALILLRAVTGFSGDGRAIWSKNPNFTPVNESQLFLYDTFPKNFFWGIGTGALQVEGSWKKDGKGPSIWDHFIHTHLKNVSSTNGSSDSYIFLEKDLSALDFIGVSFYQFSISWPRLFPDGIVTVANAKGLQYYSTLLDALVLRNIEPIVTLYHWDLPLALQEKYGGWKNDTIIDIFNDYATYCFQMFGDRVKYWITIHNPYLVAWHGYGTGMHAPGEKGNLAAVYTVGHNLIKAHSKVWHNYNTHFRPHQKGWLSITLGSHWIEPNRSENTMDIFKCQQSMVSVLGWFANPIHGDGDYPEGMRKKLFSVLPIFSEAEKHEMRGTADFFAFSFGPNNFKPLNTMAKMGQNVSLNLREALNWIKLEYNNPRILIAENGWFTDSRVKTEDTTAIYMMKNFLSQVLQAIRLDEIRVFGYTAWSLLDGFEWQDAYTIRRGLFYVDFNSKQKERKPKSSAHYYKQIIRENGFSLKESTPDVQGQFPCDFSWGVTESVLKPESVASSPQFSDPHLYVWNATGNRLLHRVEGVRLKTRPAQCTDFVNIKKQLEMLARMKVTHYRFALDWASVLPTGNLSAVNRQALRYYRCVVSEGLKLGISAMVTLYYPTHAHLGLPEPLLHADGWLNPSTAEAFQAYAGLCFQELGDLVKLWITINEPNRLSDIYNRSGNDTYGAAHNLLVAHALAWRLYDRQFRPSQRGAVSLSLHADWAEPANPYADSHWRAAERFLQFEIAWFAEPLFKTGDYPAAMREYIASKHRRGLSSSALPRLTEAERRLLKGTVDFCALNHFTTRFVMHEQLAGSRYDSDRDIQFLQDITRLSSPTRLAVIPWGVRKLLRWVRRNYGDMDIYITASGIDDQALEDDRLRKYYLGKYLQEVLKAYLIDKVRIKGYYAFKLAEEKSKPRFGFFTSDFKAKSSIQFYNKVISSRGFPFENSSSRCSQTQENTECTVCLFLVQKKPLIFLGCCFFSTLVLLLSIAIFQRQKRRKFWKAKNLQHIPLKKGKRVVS
UniProt Q86Z14, sequence (P11362 22-822, chain 2 of 2, further chain): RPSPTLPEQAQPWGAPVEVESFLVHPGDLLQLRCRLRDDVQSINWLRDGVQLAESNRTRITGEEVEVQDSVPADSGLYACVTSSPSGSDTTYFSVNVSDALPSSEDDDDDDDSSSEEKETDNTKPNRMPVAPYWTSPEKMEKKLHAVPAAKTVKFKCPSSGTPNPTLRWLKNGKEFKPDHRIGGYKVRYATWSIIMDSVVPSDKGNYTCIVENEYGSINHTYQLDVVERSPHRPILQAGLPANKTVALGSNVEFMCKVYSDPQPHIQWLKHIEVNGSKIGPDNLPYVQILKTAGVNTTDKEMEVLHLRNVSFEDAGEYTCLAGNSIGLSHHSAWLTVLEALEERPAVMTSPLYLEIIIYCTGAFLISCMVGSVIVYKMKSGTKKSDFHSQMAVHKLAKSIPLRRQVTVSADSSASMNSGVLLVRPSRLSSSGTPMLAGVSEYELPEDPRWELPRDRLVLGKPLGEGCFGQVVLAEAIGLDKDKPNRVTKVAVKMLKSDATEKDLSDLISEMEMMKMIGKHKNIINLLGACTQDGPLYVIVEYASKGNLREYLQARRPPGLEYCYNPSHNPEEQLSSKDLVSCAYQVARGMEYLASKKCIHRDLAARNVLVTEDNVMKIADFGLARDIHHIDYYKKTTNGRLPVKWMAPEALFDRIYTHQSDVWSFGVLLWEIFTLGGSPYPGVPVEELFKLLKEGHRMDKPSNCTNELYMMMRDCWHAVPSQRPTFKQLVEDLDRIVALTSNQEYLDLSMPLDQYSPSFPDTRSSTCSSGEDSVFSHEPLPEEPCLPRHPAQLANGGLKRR

Efruxifermin (EFX) (Fc fusion)
cell-based potency assay, Elk1 luciferase reporter in HEK293 cells overexpressing human KLB and FGFR1c; potency relative to ¾ EFX [1]: 2 fold | fold more stable interaction, compared to either free FGF21 or a single FGF21 domain linked to an Fc domain (surface of live cells): > 100 fold
